Laboratory results as given in patent US20250076311A1 (Chugai, published 2025).

T1: cynomolgus monkey FcγRIIb extracellular domain with C-terminal His-tag (cynomolgus monkey)
T1 construct: also called cyno FcgRIIb; cynoFcγRIIb; not shown: His-tag added to C-terminus
T1 chain: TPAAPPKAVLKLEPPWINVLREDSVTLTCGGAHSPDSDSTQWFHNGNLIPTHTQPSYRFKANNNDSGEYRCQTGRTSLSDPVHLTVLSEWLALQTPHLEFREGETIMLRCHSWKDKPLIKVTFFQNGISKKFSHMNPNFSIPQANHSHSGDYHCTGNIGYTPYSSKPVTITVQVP

T2: human FcγRIIaR extracellular domain with C-terminal His-tag (human, UniProt P12318 34-217)
T2 construct: also called human FcgRIIaR; FcγRIIa (type R); not shown: His-tag added to C-terminus
T2 chain: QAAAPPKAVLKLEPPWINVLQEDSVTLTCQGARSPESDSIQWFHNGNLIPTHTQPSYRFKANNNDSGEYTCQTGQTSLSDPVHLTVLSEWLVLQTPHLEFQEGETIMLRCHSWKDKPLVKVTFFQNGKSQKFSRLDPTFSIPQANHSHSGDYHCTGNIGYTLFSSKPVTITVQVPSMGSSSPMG

T3: cynomolgus monkey FcγRIIa3 extracellular domain with C-terminal His-tag (cynomolgus monkey)
T3 construct: also called cyno FcgRIIa3; cynoFcγRIIa3; not shown: His-tag added to C-terminus
T3 chain: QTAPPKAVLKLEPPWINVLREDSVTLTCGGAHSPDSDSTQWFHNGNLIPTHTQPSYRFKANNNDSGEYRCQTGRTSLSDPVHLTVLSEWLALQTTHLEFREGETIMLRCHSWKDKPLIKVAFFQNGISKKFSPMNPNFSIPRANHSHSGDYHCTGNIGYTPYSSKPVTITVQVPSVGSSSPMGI

T4: cynomolgus monkey FcγRIIa2 extracellular domain with C-terminal His-tag (cynomolgus monkey)
T4 construct: also called cyno FcgRIIa2; cynoFcγRIIa2; not shown: His-tag added to C-terminus
T4 chain: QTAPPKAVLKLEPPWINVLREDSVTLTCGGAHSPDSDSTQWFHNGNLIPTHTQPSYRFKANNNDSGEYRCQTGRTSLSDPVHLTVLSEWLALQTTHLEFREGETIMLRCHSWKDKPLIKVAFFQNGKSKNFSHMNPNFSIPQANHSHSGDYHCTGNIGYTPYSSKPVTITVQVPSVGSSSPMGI

T5: human FcγRIIb extracellular domain with C-terminal His-tag (human, UniProt P31994 43-217)
T5 construct: also called human FcgRIIb; not shown: His-tag added to C-terminus
T5 sequence: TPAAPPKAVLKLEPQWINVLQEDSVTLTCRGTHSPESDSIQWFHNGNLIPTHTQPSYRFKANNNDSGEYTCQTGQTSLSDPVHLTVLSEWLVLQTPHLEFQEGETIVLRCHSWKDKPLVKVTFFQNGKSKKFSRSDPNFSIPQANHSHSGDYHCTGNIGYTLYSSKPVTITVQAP


Assays:
Assay in all cases: SPR Biacore, antibody captured, FcgR analyte
[1] = molecular target: T1, cynomolgus monkey FcγRIIb extracellular …
[2] = molecular target: T6, cynomolgus monkey FcγRIIIaS extracellular domain with C-terminal His-tag (cynomolgus monkey, UniProt A3RFZ7 21-206 (rhesus entry))
T6 construct: also called cyno FcgRIIIaS; cynoFcγRIIIaS; not shown: His-tag added to C-terminus
T6 sequence (A3RFZ7 21-206): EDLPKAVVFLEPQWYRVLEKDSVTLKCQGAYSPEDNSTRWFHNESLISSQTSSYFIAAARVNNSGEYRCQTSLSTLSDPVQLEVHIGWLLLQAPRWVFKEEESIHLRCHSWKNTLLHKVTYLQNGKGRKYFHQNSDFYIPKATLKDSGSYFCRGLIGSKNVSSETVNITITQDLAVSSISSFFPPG

[3] = molecular target: T2, human FcγRIIaR extracellular domain …
[4] = molecular target: T3, cynomolgus monkey FcγRIIa3 …
[5] = molecular target: T4, cynomolgus monkey FcγRIIa2 …
[6] = molecular target: T5, human FcγRIIb extracellular domain with …
[7] = molecular target: T7, human FcγRIIIaV extracellular domain with C-terminal His-tag (human, UniProt P08637 17-208)
T7 construct: also called human FcgRIIIaV; not shown: His-tag added to C-terminus
T7 sequence (P08637 17-208 F176V): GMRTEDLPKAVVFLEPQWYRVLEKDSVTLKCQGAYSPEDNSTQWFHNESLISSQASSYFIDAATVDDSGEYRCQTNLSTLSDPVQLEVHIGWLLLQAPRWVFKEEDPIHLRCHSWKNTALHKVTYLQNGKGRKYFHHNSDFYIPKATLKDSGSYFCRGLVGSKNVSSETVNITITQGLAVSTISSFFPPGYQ

KD fold (SG1 = 1) [1]	KD fold (SG1 = 1) [2]	Kd [2]	KD fold (SG1 = 1) [3]	KD fold (SG1 = 1) [4]	Kd [3]	KD fold (SG1 = 1) [5]	KD fold (SG1 = 1) [6]	Kd [7]	KD fold (SG1 = 1) [7]	Binder
3.5 fold	0.24 fold	1.5 µM	0.1 fold	–	–	–	–	–	–	M103205H795-MY052/M103202L889-SK1 (antibody, human IgG1, kappa, name in EU numbering, substitutions in EU numbering, introduced into M103205H795-SG1) heavy: QVTLKESGPVLVKPTETLTLTCTVSGIDLSHDDISWVRQAPGKGLEWVGIISYAGSTYYASWAKGRLTISKDTSKNQVVLTMTNMDPVDTATYYCARGVPAYSHGGDLWGQGTLVTVSSASTKGPSVFPLAPSSKSTSGGTAALGCLVKDYFPEPVTVSWNSGALTSGVHTFPAVLQSSGLYSLSSVVTVPSSSLGTQTYICNVNHKPSNTKVDKKVEPKSCDKTHTCPPCPAPELLNGPSVFLFPPKPKDTLMISRTPEVTCVVVDVSEEDPEVKFNWYVDGVEVHNAKTKPREEQYNSTYRVVSVLTVLHQDWLNGKEYKCKVSNKALPAPIEKTISKAKGQPREPQVYTLPPSREEMTKNQVSLTCLVKGFYPSDIAVEWESNGQPENNYKTTPMVLDSDGSFFLYSKLTVDKSRWQQGNVFSCSVMHEALHNHYTQKSLSLSP light: DIVMTQSPATLSLSPGERATLSCTSSQSVYHANWLSWFQQKPGQPPKLLIYWASTLAYGVPSRFSGSGSGTDFTLTISSLQPEDAATYYCAGGYGGGRYAFGQGTKVEIKRTVAAPSVFIFPPSDEQLKSGTASVVCLLNNFYPREAKVQWKVDNALQSGNSQESVTEQDSKDSTYSLSSTLTLSKADYEKHKVYACEVTHQGLSSPVTKSFNRGEC
–	0.14 fold	–	–	–	–	–	7.5 fold	–	0.17 fold	M103205H795-MY212/M103202L889-SK1 (antibody, human IgG1, kappa, name in EU numbering, substitutions in EU numbering, introduced into M103205H795-SG1) heavy: QVTLKESGPVLVKPTETLTLTCTVSGIDLSHDDISWVRQAPGKGLEWVGIISYAGSTYYASWAKGRLTISKDTSKNQVVLTMTNMDPVDTATYYCARGVPAYSHGGDLWGQGTLVTVSSASTKGPSVFPLAPSSKSTSGGTAALGCLVKDYFPEPVTVSWNSGALTSGVHTFPAVLQSSGLYSLSSVVTVPSSSLGTQTYICNVNHKPSNTKVDKKVEPKSCDKTHTCPPCPAPELLNGPVVFLFPPKPKDTLMISRTPEVTCVVVDVSDEDPEVKFNWYVDGVEVHNAKTKPREELYNSTYRVVSVLTVLHQDWLNGKEYKCKVSNTALPKPIEKTISKAKGQPREPQVYTLPPSREEMTKNQVSLTCLVKGFYPSDIAVEWESNGQPENNYKTTPPVLDSDGSFFLYSKLTVDKSRWQQGNVFSCSVMHEALHNHYTQKSLSLSP light: DIVMTQSPATLSLSPGERATLSCTSSQSVYHANWLSWFQQKPGQPPKLLIYWASTLAYGVPSRFSGSGSGTDFTLTISSLQPEDAATYYCAGGYGGGRYAFGQGTKVEIKRTVAAPSVFIFPPSDEQLKSGTASVVCLLNNFYPREAKVQWKVDNALQSGNSQESVTEQDSKDSTYSLSSTLTLSKADYEKHKVYACEVTHQGLSSPVTKSFNRGEC
3.9 fold	0.04 fold	–	–	–	–	–	–	–	0.03 fold	M103205H795-MY440/M103202L889-SK1 (antibody, human IgG1, kappa, name in EU numbering, substitutions in EU numbering, introduced into M103205H795-SG1) heavy: QVTLKESGPVLVKPTETLTLTCTVSGIDLSHDDISWVRQAPGKGLEWVGIISYAGSTYYASWAKGRLTISKDTSKNQVVLTMTNMDPVDTATYYCARGVPAYSHGGDLWGQGTLVTVSSASTKGPSVFPLAPSSKSTSGGTAALGCLVKDYFPEPVTVSWNSGALTSGVHTFPAVLQSSGLYSLSSVVTVPSSSLGTQTYICNVNHKPSNTKVDKKVEPKSCDKTHTCPPCPAPELWNGPSVFLFPPKPKDTLMISRTPEVTCVVVDVSDEDPEVKFNWYVDGVEVHNAKTKPREELYNSTYRVVSVLTVLHQDWLNGKEYKCKVSNKALPKPIEKTISKAKGQPREPQVYTLPPSREEMTKNQVSLTCLVKGFYPSDIAVEWESNGQPENNYKTTPPVLDSDGSFFLYSKLTVDKSRWQQGNVFSCSVMHEALHNHYTQKSLSLSP light: DIVMTQSPATLSLSPGERATLSCTSSQSVYHANWLSWFQQKPGQPPKLLIYWASTLAYGVPSRFSGSGSGTDFTLTISSLQPEDAATYYCAGGYGGGRYAFGQGTKVEIKRTVAAPSVFIFPPSDEQLKSGTASVVCLLNNFYPREAKVQWKVDNALQSGNSQESVTEQDSKDSTYSLSSTLTLSKADYEKHKVYACEVTHQGLSSPVTKSFNRGEC

More lines, now with the values behind:

Binder	KD fold (SG1 = 1) [1]	KD fold (SG1 = 1) [2]	Kd [2]	KD fold (SG1 = 1) [3]	KD fold (SG1 = 1) [4]	Kd [3]	KD fold (SG1 = 1) [5]	KD fold (SG1 = 1) [6]	Kd [7]	KD fold (SG1 = 1) [7]
M103205H795-MY175/M103202L889-SK1 (antibody, human IgG1, kappa, name in EU numbering, EU numbering) heavy: QVTLKESGPVLVKPTETLTLTCTVSGIDLSHDDISWVRQAPGKGLEWVGIISYAGSTYYASWAKGRLTISKDTSKNQVVLTMTNMDPVDTATYYCARGVPAYSHGGDLWGQGTLVTVSSASTKGPSVFPLAPSSKSTSGGTAALGCLVKDYFPEPVTVSWNSGALTSGVHTFPAVLQSSGLYSLSSVVTVPSSSLGTQTYICNVNHKPSNTKVDKKVEPKSCDKTHTCPPCPAPELLNGPSVFLFPPKPKDTLMISRTPEVTCVVVDVSEEDPEVKFNWYVDGVEVHNAKTKPREEQYNSTYRVVSVLTVLHQDWLNGKEYKCKVSNKALPAPIEKTISKAKGQPREPQVYTLPPSREEMTKNQVSLTCLVKGFYPSDIAVEWESNGQPENNYKTTPKVLDSDGSFFLYSKLTVDKSRWQQGNVFSCSVMHEALHNHYTQKSLSLSP light: DIVMTQSPATLSLSPGERATLSCTSSQSVYHANWLSWFQQKPGQPPKLLIYWASTLAYGVPSRFSGSGSGTDFTLTISSLQPEDAATYYCAGGYGGGRYAFGQGTKVEIKRTVAAPSVFIFPPSDEQLKSGTASVVCLLNNFYPREAKVQWKVDNALQSGNSQESVTEQDSKDSTYSLSSTLTLSKADYEKHKVYACEVTHQGLSSPVTKSFNRGEC	–	0.14 fold	2.6 µM	–	2.3 fold	1.5 µM	–	–	–	–
M103205H795-MY183/M103202L889-SK1 (antibody, human IgG1, kappa, name in EU numbering, EU numbering) heavy: QVTLKESGPVLVKPTETLTLTCTVSGIDLSHDDISWVRQAPGKGLEWVGIISYAGSTYYASWAKGRLTISKDTSKNQVVLTMTNMDPVDTATYYCARGVPAYSHGGDLWGQGTLVTVSSASTKGPSVFPLAPSSKSTSGGTAALGCLVKDYFPEPVTVSWNSGALTSGVHTFPAVLQSSGLYSLSSVVTVPSSSLGTQTYICNVNHKPSNTKVDKKVEPKSCDKTHTCPPCPAPELLNGPSVFLFPPKPKDTLMISRTPEVTCVVVDVSEEDPEVKFNWYVDGVEVHNAKTKPREEQYNSTYRVVSVLTVLHQDWLNGKEYKCKVSNKALPAPIEKTISKAKGQPREPQVYTLPPSREEMTKNQVSLTCLVKGFYPSDIAVEWESNGQPENNYKTTPWVLDSDGSFFLYSKLTVDKSRWQQGNVFSCSVMHEALHNHYTQKSLSLSP light: DIVMTQSPATLSLSPGERATLSCTSSQSVYHANWLSWFQQKPGQPPKLLIYWASTLAYGVPSRFSGSGSGTDFTLTISSLQPEDAATYYCAGGYGGGRYAFGQGTKVEIKRTVAAPSVFIFPPSDEQLKSGTASVVCLLNNFYPREAKVQWKVDNALQSGNSQESVTEQDSKDSTYSLSSTLTLSKADYEKHKVYACEVTHQGLSSPVTKSFNRGEC	–	0.1 fold	3.5 µM	–	–	–	2.6 fold	4.7 fold	7.7 µM	–
M103205H795-MY434/M103202L889-SK1 (antibody, human IgG1, kappa, name in EU numbering, substitutions in EU numbering, introduced into M103205H795-SG1) heavy: QVTLKESGPVLVKPTETLTLTCTVSGIDLSHDDISWVRQAPGKGLEWVGIISYAGSTYYASWAKGRLTISKDTSKNQVVLTMTNMDPVDTATYYCARGVPAYSHGGDLWGQGTLVTVSSASTKGPSVFPLAPSSKSTSGGTAALGCLVKDYFPEPVTVSWNSGALTSGVHTFPAVLQSSGLYSLSSVVTVPSSSLGTQTYICNVNHKPSNTKVDKKVEPKSCDKTHTCPPCPAPELWNGPSVFLFPPKPKDTLMISRTPEVTCVVVDVSDEDPEVKFNWYVDGVEVHNAKTKPREEQYNSTYRVVSVLTVLHQDWLNGKEYKCKVSNKALPKPIEKTISKAKGQPREPQVYTLPPSREEMTKNQVSLTCLVKGFYPSDIAVEWESNGQPENNYKTTPPVLDSDGSFFLYSKLTVDKSRWQQGNVFSCSVMHEALHNHYTQKSLSLSP light: DIVMTQSPATLSLSPGERATLSCTSSQSVYHANWLSWFQQKPGQPPKLLIYWASTLAYGVPSRFSGSGSGTDFTLTISSLQPEDAATYYCAGGYGGGRYAFGQGTKVEIKRTVAAPSVFIFPPSDEQLKSGTASVVCLLNNFYPREAKVQWKVDNALQSGNSQESVTEQDSKDSTYSLSSTLTLSKADYEKHKVYACEVTHQGLSSPVTKSFNRGEC	–	0.03 fold	–	0.8 fold	–	–	–	3.5 fold	–	–
